Assay results: patent US20170204402A1 (published 2017)

Molecular target: T1, ACM335-FKBP hybrid protein (from plasmid pCm-ACM335-FKBP) (Bordetella pertussis, UniProt P62942 2-108)
T1 construct: also called ACM-FKBP
Experiment: HSACH in vivo complementation in E. coli DHM1 (data not shown)

B1: 3K1K-CaM fusion (VHH)
VHH: QVQLVESGGALVQPGGSLRLSCAASGFPVNRYSMRWYRQAPGKEREWVAGMSSAGDRSSYEDSVKGRFTISRDDARNTVYLQMNSLKPEDTAVYYCNVNVGFEYWGQGTQVTVSS
B1: no binding.
